Measured values taken from PMC8200006.

Target: purified pig brain plasma membrane Ca2+-ATPase (PMCA) (pig) (UniProt P23220)
Sequence of UniProt P23220 (P23220 whole entry): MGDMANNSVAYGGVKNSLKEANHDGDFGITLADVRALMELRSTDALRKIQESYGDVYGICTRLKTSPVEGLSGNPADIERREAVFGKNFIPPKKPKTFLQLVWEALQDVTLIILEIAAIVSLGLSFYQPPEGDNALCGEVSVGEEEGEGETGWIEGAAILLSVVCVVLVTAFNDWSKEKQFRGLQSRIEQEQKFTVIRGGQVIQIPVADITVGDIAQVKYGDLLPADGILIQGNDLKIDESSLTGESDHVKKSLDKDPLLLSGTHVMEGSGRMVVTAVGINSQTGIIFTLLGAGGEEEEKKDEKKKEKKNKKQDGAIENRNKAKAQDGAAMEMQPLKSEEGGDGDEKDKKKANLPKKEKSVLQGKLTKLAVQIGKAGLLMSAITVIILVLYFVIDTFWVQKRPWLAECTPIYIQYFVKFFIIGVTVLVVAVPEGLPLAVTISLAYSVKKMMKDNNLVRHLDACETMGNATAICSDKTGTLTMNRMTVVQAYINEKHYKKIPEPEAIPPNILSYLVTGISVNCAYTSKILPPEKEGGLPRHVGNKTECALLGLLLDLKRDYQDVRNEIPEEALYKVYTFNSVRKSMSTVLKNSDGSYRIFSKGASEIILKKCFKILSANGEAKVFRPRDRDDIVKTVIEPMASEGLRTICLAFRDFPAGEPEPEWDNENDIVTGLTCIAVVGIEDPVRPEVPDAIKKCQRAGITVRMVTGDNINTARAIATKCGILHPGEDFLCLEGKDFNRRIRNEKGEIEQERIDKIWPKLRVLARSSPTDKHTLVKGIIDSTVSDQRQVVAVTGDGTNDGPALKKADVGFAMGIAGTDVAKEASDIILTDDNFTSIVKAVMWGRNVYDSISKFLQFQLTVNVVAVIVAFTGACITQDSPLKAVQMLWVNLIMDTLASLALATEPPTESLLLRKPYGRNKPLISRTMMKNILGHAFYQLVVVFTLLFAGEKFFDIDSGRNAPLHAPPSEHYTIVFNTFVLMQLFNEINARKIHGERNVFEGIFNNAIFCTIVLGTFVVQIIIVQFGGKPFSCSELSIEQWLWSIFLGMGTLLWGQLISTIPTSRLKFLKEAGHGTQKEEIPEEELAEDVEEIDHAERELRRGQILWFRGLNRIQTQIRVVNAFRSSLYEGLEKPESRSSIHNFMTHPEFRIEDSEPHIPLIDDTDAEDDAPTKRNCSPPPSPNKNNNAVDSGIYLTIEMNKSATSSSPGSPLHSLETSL

Ca2+-ATPase activity of purified pig brain PMCA reconstituted in PC, sorcin 12.5-50 nM in the assay medium, with Ca2+: fold activation: 1.8 fold
Ca2+-ATPase activity of purified pig brain PMCA reconstituted in PC: EC50 of activation by sorcin (in the assay medium): 12.5 nM
B1: Recombinant Human SRI (sorcin), soluble resistance-related calcium-binding protein (natural protein)
chain: MAYPGHPGAGGGYYPGGYGGAPGGPAFPGQTQDPLYGYFAAVAGQDGQIDADELQRCLTQSGIAGGYKPFNLETCRLMVSMLDRDMSGTMGFNEFKELWAVLNGWRQHFISFDTDRSGTVDPQELQKALTTMGFRLSPQAVNSIAKRYSTNGKITFDDYIACCVKLRALTDSFRRRDTAQQGVVNFPYDDFIQCVMSV
